According to US20040166109A1 (AVENTIS PHARMA S A, published 2004):

T1: GAL4 transactivating domain fusion of the central region of human hnRNPL (amino acids 116 to 464), brain … (human, UniProt P14866 147-495, limits assumed)
T1 construct: Two-hybrid prey isolated in the screen; also called central portion of hnRNPL
T1 sequence: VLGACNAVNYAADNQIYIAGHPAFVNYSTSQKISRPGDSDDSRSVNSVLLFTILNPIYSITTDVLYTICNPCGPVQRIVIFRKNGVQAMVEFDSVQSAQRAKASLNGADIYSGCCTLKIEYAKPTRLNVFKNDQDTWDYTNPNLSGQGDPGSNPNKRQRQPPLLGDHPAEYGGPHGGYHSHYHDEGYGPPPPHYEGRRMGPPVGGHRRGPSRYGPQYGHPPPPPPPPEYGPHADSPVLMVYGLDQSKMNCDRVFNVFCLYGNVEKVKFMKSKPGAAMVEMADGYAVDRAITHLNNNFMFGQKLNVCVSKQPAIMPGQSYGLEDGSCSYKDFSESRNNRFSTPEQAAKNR

T2: GAL4 transactivating domain fusion of the FEBP1 (FE65 Binding PTB1 domain protein) fragment of 337 amino … (human, UniProt Q9UH62 44-379, limits assumed)
T2 construct: Two-hybrid prey isolated from a human brain cDNA library; a fragment of FEBP1, limits on the whole protein not known; also called fragment of the FEBP1 protein
T2 sequence: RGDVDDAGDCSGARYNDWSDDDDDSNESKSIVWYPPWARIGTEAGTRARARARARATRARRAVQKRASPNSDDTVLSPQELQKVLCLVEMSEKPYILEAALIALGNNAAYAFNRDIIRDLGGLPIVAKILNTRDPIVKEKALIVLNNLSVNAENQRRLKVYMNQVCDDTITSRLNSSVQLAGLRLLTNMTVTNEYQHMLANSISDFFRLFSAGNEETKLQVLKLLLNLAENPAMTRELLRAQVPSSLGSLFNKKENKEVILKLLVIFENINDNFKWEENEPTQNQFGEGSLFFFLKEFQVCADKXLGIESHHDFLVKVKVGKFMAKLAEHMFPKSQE

B1: LexA fusion of the PTB1 domain of the human FE65 protein (amino acids 395 to 543), expressed from pLex-FE65PTB1 (other)
chain: PPRNTNPGIKCFAVRSLGWVEMTEEELAPGRSSVAVNNCIRQLSYHKNNLHDPMSGGWGEGKDLLLQLEDETLKLVEPQSQALLHAQPIISIRVWGVGRDSGRDFAYVARDKLTQMLKCHVFRCEAPAKNIATSLHEICSKIMAERRNA
notes: Two-hybrid bait expressed in yeast strain L40; PTB1 fragment cloned between XmaI and SalI downstream of LexA; also called PTB1 domain of FE65; not shown: LexA protein encoded by vector pLex9 (pBTM116); N-terminal fusion partner

Tests used:
Experiment in all cases: yeast two-hybrid (LexA bait, GAL4 AD prey), beta-galactosidase filter assay
[1] = target: T1, GAL4 transactivating domain fusion of …
[2] = target: T2, GAL4 transactivating domain fusion of …
[3] = target: B1

Row | binding result [1] | binding result [2] | binding result [3] | Binder
1 | binds | binds |  | B1
2 |  |  | no binding | LKKKQYTSIHHGVVEVDAAVTPEERHLSKMQQNGYENPTYKFFEQMQN (other, UniProt P05067 723-770, looked up, not shown: large carriers, domain: cytoplasmic domain; Control prey; also called C-terminal domain of the APP)
